For four molecules, flow cytometry signal results are on record in US11834499.

Assay [1] has as its target Claudin-18.1 (CLDN18.1) (human) (UniProt P56856). The assay can be described thus: flow cytometry; HEK293T human CLDN18.1 mGFP 2B14, 1ug; control HEK293T parental 1ug 5,328.00. Background: Flow cytometry measures light scatter and fluorescence of single cells or particles in a stream.
The target in assay [2] is rat CLDN18 (rat) (UniProt Q5I0E5). The assay can be described thus: flow cytometry; HEK293T rat CLDN18 moxGFP Clone5, 1ug; control HEK293T parental 1ug 5,328.00.
Assay [3] addresses dogCLDN18 (Canis lupus familiaris). Kind of assay: flow cytometry; HEK293T dogCLDN18 moxGFP mass pop, 1ug; control HEK293T parental 1ug 5,328.00.
Assay [4] has as its target Claudin-18.1 (CLDN18.1) (human) (UniProt P56856). The assay can be described thus: flow cytometry; HEK293T human CLDN18.1 mGFP 2B14, 10ug; control HEK293T parental 10ug 12,759.00.
Assay [5] deals with rat CLDN18 (rat) (UniProt Q5I0E5). Kind of assay: flow cytometry; HEK293T rat CLDN18 moxGFP Clone5, 10ug; control HEK293T parental 10ug 12,759.00.
The target in assay [6] is dogCLDN18 (Canis lupus familiaris). Kind of assay: flow cytometry; HEK293T dogCLDN18 moxGFP mass pop, 10ug; control HEK293T parental 10ug 12,759.00.
Assay [7] concerns the target Claudin-18.1 (CLDN18.1) (human) (UniProt P56856). The assay can be described thus: flow cytometry; HEK293T human CLDN18.1 mGFP 2B14, 0.1ug; control HEK293T parental 0.1ug 3,276.00.
Assay [8] concerns the target rat CLDN18 (rat) (UniProt Q5I0E5). The assay can be described thus: flow cytometry; HEK293T rat CLDN18 moxGFP Clone5, 0.1ug; control HEK293T parental 0.1ug 3,276.00.
The target in assay [9] is dogCLDN18 (Canis lupus familiaris). The assay can be described thus: flow cytometry; HEK293T dogCLDN18 moxGFP mass pop, 0.1ug; control HEK293T parental 0.1ug 3,276.00.
Assay [10] deals with Claudin-18.1 (CLDN18.1) (human) (UniProt P56856). Kind of assay: flow cytometry; HEK293T human CLDN18.1 mGFP 2B14, 1ug; control HEK293T parental 1ug 9,051.00.
In assay [11] the target is rat CLDN18 (rat) (UniProt Q5I0E5). The assay can be described thus: flow cytometry; HEK293T rat CLDN18 moxGFP Clone5, 1ug; control HEK293T parental 1ug 9,051.00.
Assay [12] concerns the target dogCLDN18 (Canis lupus familiaris). The assay can be described thus: flow cytometry; HEK293T dogCLDN18 moxGFP mass pop, 1ug; control HEK293T parental 1ug 9,051.00.
Assay [13] concerns the target Claudin-18.1 (CLDN18.1) (human) (UniProt P56856). The assay can be described thus: flow cytometry; HEK293T human CLDN18.1 mGFP 2B14, 10ug; control HEK293T parental 10ug 22,390.50.
The target of assay [14] is rat CLDN18 (rat) (UniProt Q5I0E5). Kind of assay: flow cytometry; HEK293T rat CLDN18 moxGFP Clone5, 10ug; control HEK293T parental 10ug 22,390.50.
Assay [15] concerns the target dogCLDN18 (Canis lupus familiaris). Kind of assay: flow cytometry; HEK293T dogCLDN18 moxGFP mass pop, 10ug; control HEK293T parental 10ug 22,390.50.
For assay [16], the target named is Claudin-18.1 (CLDN18.1) (human) (UniProt P56856). Kind of assay: flow cytometry; HEK293T human CLDN18.1 mGFP 2B14, 0.1ug; control HEK293T parental 0.1ug 2,726.00.
Assay [17] concerns the target rat CLDN18 (rat) (UniProt Q5I0E5). The assay can be described thus: flow cytometry; HEK293T rat CLDN18 moxGFP Clone5, 0.1ug; control HEK293T parental 0.1ug 2,726.00.
Assay [18] has as its target dogCLDN18 (Canis lupus familiaris). Kind of assay: flow cytometry; HEK293T dogCLDN18 moxGFP mass pop, 0.1ug; control HEK293T parental 0.1ug 2,726.00.
The target of assay [19] is Claudin-18.1 (CLDN18.1) (human) (UniProt P56856). The assay can be described thus: flow cytometry; HEK293T human CLDN18.1 mGFP 2B14, 1ug; control HEK293T parental 1ug 4,198.00.
The target of assay [20] is rat CLDN18 (rat) (UniProt Q5I0E5). The assay can be described thus: flow cytometry; HEK293T rat CLDN18 moxGFP Clone5, 1ug; control HEK293T parental 1ug 4,198.00.
Assay [21] concerns the target dogCLDN18 (Canis lupus familiaris). The assay can be described thus: flow cytometry; HEK293T dogCLDN18 moxGFP mass pop, 1ug; control HEK293T parental 1ug 4,198.00.
For assay [22], the target named is Claudin-18.1 (CLDN18.1) (human) (UniProt P56856). Kind of assay: flow cytometry; HEK293T human CLDN18.1 mGFP 2B14, 10ug; control HEK293T parental 10ug 16,812.50.
For assay [23], the target named is rat CLDN18 (rat) (UniProt Q5I0E5). Kind of assay: flow cytometry; HEK293T rat CLDN18 moxGFP Clone5, 10ug; control HEK293T parental 10ug 16,812.50.
Assay [24] addresses dogCLDN18 (Canis lupus familiaris). The assay can be described thus: flow cytometry; HEK293T dogCLDN18 moxGFP mass pop, 10ug; control HEK293T parental 10ug 16,812.50.
Assay [25] concerns the target Claudin-18.1 (CLDN18.1) (human) (UniProt P56856). Kind of assay: flow cytometry; HEK293T human CLDN18.1 mGFP 2B14, 0.1ug; control HEK293T parental 0.1ug 3,268.00.
For assay [26], the target named is rat CLDN18 (rat) (UniProt Q5I0E5). Kind of assay: flow cytometry; HEK293T rat CLDN18 moxGFP Clone5, 0.1ug; control HEK293T parental 0.1ug 3,268.00.
For assay [27], the target named is dogCLDN18 (Canis lupus familiaris). Kind of assay: flow cytometry; HEK293T dogCLDN18 moxGFP mass pop, 0.1ug; control HEK293T parental 0.1ug 3,268.00.
The target in assay [28] is Claudin-18.1 (CLDN18.1) (human) (UniProt P56856). Kind of assay: flow cytometry; HEK293T human CLDN18.1 mGFP 2B14, 1ug; control HEK293T parental 1ug 8,287.00.
Assay [29] addresses rat CLDN18 (rat) (UniProt Q5I0E5). Kind of assay: flow cytometry; HEK293T rat CLDN18 moxGFP Clone5, 1ug; control HEK293T parental 1ug 8,287.00.
Assay [30] deals with dogCLDN18 (Canis lupus familiaris). The assay can be described thus: flow cytometry; HEK293T dogCLDN18 moxGFP mass pop, 1ug; control HEK293T parental 1ug 8,287.00.
Assay [31] concerns the target Claudin-18.1 (CLDN18.1) (human) (UniProt P56856). Kind of assay: flow cytometry; HEK293T human CLDN18.1 mGFP 2B14, 10ug; control HEK293T parental 10ug 29,683.50.
In assay [32] the target is rat CLDN18 (rat) (UniProt Q5I0E5). Kind of assay: flow cytometry; HEK293T rat CLDN18 moxGFP Clone5, 10ug; control HEK293T parental 10ug 29,683.50.
The target of assay [33] is dogCLDN18 (Canis lupus familiaris). The assay can be described thus: flow cytometry; HEK293T dogCLDN18 moxGFP mass pop, 10ug; control HEK293T parental 10ug 29,683.50.
Assay [34] deals with Claudin-18.1 (CLDN18.1) (human) (UniProt P56856). The assay can be described thus: flow cytometry; HEK293T human CLDN18.1 mGFP 2B14, 0.1ug; control HEK293T parental 0.1ug 3,589.50.
For assay [35], the target named is rat CLDN18 (rat) (UniProt Q5I0E5). The assay can be described thus: flow cytometry; HEK293T rat CLDN18 moxGFP Clone5, 0.1ug; control HEK293T parental 0.1ug 3,589.50.
Assay [36] has as its target dogCLDN18 (Canis lupus familiaris). Kind of assay: flow cytometry; HEK293T dogCLDN18 moxGFP mass pop, 0.1ug; control HEK293T parental 0.1ug 3,589.50.

rat CLDN18 (rat), sequence (Q5I0E5 whole entry): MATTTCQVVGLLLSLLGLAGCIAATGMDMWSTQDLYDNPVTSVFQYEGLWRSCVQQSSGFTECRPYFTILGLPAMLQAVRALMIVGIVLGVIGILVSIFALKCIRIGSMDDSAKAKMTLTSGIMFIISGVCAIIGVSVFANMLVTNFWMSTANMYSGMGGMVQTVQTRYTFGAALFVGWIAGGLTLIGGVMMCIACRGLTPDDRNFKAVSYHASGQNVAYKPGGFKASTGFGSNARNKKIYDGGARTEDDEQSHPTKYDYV
Claudin-18.1 (CLDN18.1) (human), sequence (P56856 whole entry): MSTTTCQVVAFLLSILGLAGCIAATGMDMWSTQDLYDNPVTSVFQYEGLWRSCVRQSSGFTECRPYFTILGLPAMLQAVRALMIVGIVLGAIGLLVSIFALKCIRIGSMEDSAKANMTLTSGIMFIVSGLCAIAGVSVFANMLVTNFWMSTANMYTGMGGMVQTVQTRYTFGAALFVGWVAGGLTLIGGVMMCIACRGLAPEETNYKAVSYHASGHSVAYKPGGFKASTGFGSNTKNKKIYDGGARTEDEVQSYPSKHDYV

B1: HuAb307-3 (antibody, V domains shown)
VH: EVQLLESGGGLVQPGGSLRLSCAASGFTFSSYTMSWVRQAPGKGLEWVATIIIGGSYTYYADSVKGRFTISRDNSKNTLYLQMNSLRAEDTAVYYCTRLVKGNAMDYWGQGTLVTVSS
VL: DIVMTQSPDSLAVSLGERVTMNCKSSQSLLNSGNQKNYLSWYQQKPGQPPKLLFYWASTRESGVPDRFSGSGSGTDFTLTISSVQAEDVAVYYCQNDYSYPFTFGQGTKLEIK
For B1, the flow cytometry signal is 54100 in assay [1]; 7320 in [2]; 6030 in [3]; 76900 in assay [4]; 13800 in assay [5]; 10200 in assay [6]. In addition, the flow cytometry signal in assay [7] is 52100; in assay [8], 3810; in [9], 3860.

B2: 02-0307-h6 (antibody, V domains shown)
VH: EVQLLESGGGLVQPGGSLRLSCAASGFTFSSYTMSWVRQAPGKGLEWVATIIIGGSYTYYADSVKGRFTISRDNSKNTLYLQMNSLRAEDTAVYYCTRLVKGNAMDYWGQGTLVTVSS
VL: DIVMTQSPDSLAVSLGERVTMNCKSSQSLLSSGNQKNYLSWYQQKPGQPPKLLFYWASTRESGVPDRFSGSGSGTDFTLTISSVQAEDVAVYYCQNDYSYPFTFGQGTKLEIK
With B2, the flow cytometry signal worked out at 68800 in [10]; 10900 in assay [11]; 9480 in [12]; 156000 in assay [13]; 30700 in assay [14]; 21800 in assay [15]. The values for the flow cytometry signal in [16], in [17] and in assay [18] were 53100, 3600 and 3690, respectively.

B3: 02-0358-h3 (antibody, V domains shown)
VH: EVQLVESGGGLVQPGGSLRLSCAVSGFTFSSFGMHWVRQAPGKGLEWVAYISSGTTNIYYADSVKGRFTVSRDNAKNSLYLQMNSLRAEDTAVYYCVRSGYYGNSLDYWGQGTLVTVSS
VL: DIVMTQSPDSLAVSLGERVTMNCKSSQSLFNSGNQRNYLTWYQQKPGQPPKLLIYWASTRESGVPDRFSGSGSGTDFTLTISSVQAEDVAVYYCQNVYIYPLTFGQGTKLEIK
Regarding B3, the flow cytometry signal in assay [19] is 55200; in [20] it was 5070; in assay [21] it was 4230; in assay [22] it was 99100; in assay [23], 16700; in assay [24] it was 11700. Also, the flow cytometry signal in [25] is 50400; in assay [26], 3720; in assay [27] it was 3700.

B4: 02-0358-h5 (antibody, V domains shown)
VH: EVQLVESGGGLVQPGGSLRLSCAVSGFTFSSFGMHWVRQAPGKGLEWVAYISSGTTNIYYADSVKGRFTVSRDNAKNSLYLQMNSLRAEDTAVYYCVRSGYYGNSLDYWGQGTLVTVSS
VL: DIVMTQSPDSLAVSLGERVTMNCKSSQSLFSSGNQRNYLTWYQQKPGQPPKLLIYWASTRESGVPDRFSGSGSGTDFTLTISSVQAEDVAVYYCQNVYIYPLTFGQGTKLEIK
Regarding B4, the flow cytometry signal in [28] came out at 64800; in assay [29], 12400; in assay [30] it was 8760; in assay [31], 140000; in [32], 31200; in assay [33], 20600. Besides, the figures for the flow cytometry signal in assay [34], in assay [35] and in assay [36] were 52700, 4580 and 4700, respectively.
